How the values were obtained:
Assay in all cases: AlphaScreen or HTRF
[1] = molecular target: PPARγ ligand binding domain (LBD)
[2] = molecular target: PPARδ ligand binding domain (LBD)
[3] = molecular target: PPARα ligand binding domain (LBD)

Measured: AlphaScreen signal

N-terminal biotinylated CBP1 peptide
< 800: [1] | [2] | [3]
